Laboratory results: the DeepSol protein solubility set

Assay: soluble on expression in E. coli; label from the status in PepcDB or PDB records

**Q.** Which “soluble on expression in E. coli” value does the source give for “MIIHFTLNGAPQELTVNPGENVQKLLFNMGMHSVRNSDDGFGFAGSDAIIFNGNIVNASLLIAAQLEKADIRTAESLGKWNELSLVQQAMVDVGVVQSGYNDPAAALIITDLLDRIAAPTREEIDDALSGLFSRDAGWQQYYQVIELAVARKNNPQATIDIAPTFRDDLEVIGKHYPKTDAAKMVQAKPCYVEDRVTADACVIKMLRSPHAHALITHLDVSKAEALPGVVHVITHLNCPDIYYTPGGQSAPEPSPLDRRMFGKKMRHVGDRVAAVVAESEEIALEALKLIDVEYEVLKPVMSIDEAMAEDAPVVHDEPVVYVAGAPDTLEDDNSHAAQRGEHMIINFPIGSRPRKNIAASIHGHIGDMDKGFADADVIIERTYNSTQAQQCPTETHICFTRMDGDRLVIHASTQVPWHLRRQVARLVGMKQHKVHVIKERVGGGFGSKQDILLEEVCAWATCVTGRPVLFRYTREEEFIANTSRHVAKVTVKLGAKKDGRLTAVKMDFRANTGPYGNHSLTVPCNGPALSLPLYPCDNVDFQVTTYYSNICPNGAYQGYGAPKGNFAITMALAELAEQLQIDQLEIIERNRVHEGQELKILGAIGEGKAPTSVPSAASCALEEILRQGREMIQWSSPKPQNGDWHIGRGVAIIMQKSGIPDIDQANCMIKLESDGTFIVHSGGADIGTGLDTVVTKLAAEVLHCPPQDVHVISGDTDHALFDKGAYASSGTCFSGNAARLAAENLREKILFHGAQMLGEPVADVQLATPGVVRGKKGEVSFGDIAHKGETGTGFGSLVGTGSYITPDFAFPYGANFAEVAVNTRTGEIRLDKFYALLDCGTPVNPELALGQIYGATLRAIGHSMSEEIIYDAEGHPLTRDLRSYGAPKIGDIPRDFRAVLVPSDDKVGPFGAKSISEIGVNGAAPAIATAIHDACGIWLREWHFTPEKILTALEKI” here?
**A.** Its value is “soluble”.

**Q.** Which “soluble on expression in E. coli” value does the source give for “MAESSDKLYRVEYAKSGRASCKKCSESIPKDSLRMAIMVQSPMFDGKVPHWYHFSCFWKVGHSIRHPDVEVDGFSELRWDDQQKVKKTAEAGG” here?
**A.** Its value is “soluble”.

**Q.** For “MAHHHHHHMAEALHERHFFDKFIKMNIPDDYLDASRFRVIPDNQEVYVHKFQDKCLIIEILCFQNMNIQEKGNFYFYDLAKENDSIENVIITSNHSVPHSQGNYILLVGRQKIKKNNSSTHEPILLYICIFPLEEHNADIIITWNVPKEDMDIQPELETFNEMMQSFRILDYTLFV”, which “soluble on expression in E. coli” value is on record?
**A.** The value was “soluble”.

**Q.** With “MGSDKIHHHHHHMTSHRAEFPIKLRFLFEPARYKILYGGRGGAKSWGVARALLIQAAATPLRILCVREFQNSIVESVHHLLKAQIEAIGLNSFYEVHNNVIRGINGSEFIFAGLHSNVTRIKSFEGVDRVWVEEAQTVSKTSWDTLIPTIRKEGSEIWVTYNPELNTDETHQRFVVNPPAGAVVVKINWNDNPWFPEILRREKDGLKARDPDAYQNVWEGNCRVTLEGAVYAKELRLAQEEGRIRSVPYDEAKPVHTFFDLGWADNTSIWFAQTVGNELRLIDYYSNSQMPIQHYIGVLQNKGYMYGTDWLPHDARARTLATGRSVEEIMLAAGRKVRIVPNLSIHDGINAARTIFPRCYFDEQNCAEGLQSLRHYRFDVDRDSGQFSARPLHDYHSHAADAFRYFAMAIEEDKPAASARGINMKGWRA” as the sequence, how does the “soluble on expression in E. coli” value read?
**A.** Its value is “not soluble”.

**Q.** With “MGSDKIHHHHHHMWCRNLTVRYPDQDRDVLNDLTVSLRQGETTLLIGPSGSGKTTFLHTLAGLMPETIEAEVTGEWRADGTVGMLFQQPDDQFCMQTVGAEIAFSLENRSIPRDEMEERIRTVLKRVGLDLALTTQIAGLSGGMKQRLALACVLALEPDILLLDEPTAQLDPHGRRLMMELIEELHHNPNVTLVLIEHQLEECVTFADRVLVFREGQLRLDGSPLDVFEEKREDLTRHGIMCPLLYPYTLETIPLTIATARFLDGPPVARRPVANETTLDLTDVTIAHGKRMILDQISLTASAGEWIMLVGRNGAGKSTLLETLAKLLPAQSGTIKLFQTPLKKWRDRTFYRQVGFVFQQPEFQFLKQTVADELAISSPSPARSQVADALQHYRLEDVAAQSPLALSLGQKRRLSVATMLLERKAVLLLDEPTFGQDAETTAQILDVLHQAREAGTTLIMVTHDMELVYRYADRVVVIGEKHVQFDGAPDELFRNESLLEHNQLIRPVSVRYQQLEEVKHRAGKQFVARTP” as the sequence, how does the “soluble on expression in E. coli” value read?
**A.** Its value is “not soluble”.

**Q.** Which “soluble on expression in E. coli” value does the source give for “MEEINTKEVAQRITTELKRYSIPQAIFAQRVLCRSQGTLSDLLRNPKPWSKLKSGRETFRRMWKWLQEPEFQRMSALRLAACKRKEQEHGKDRGNTPKKPRLVFTDVQRRTLHAIFKENKRPSKELQITISQQLGLELSTVSNFFMNARRRSLDKWLEHHHHHH” here?
**A.** Its value is “soluble”.

**Q.** With “MASLLNARTAVITGGAQGLGLAIGQRFVAEGARVVLGDVNLEATEVAAKRLGGDDVALAVRCDVTQADDVDILIRTAVERFGGLDVMVNNAGITRDATMRTMTEEQFDQVIAVHLKGTWNGTRLAAAIMRERKRGAIVNMSSVSGKVGMVGQTNYSAAKAGIVGMTKAAAKELAHLGIRVNAIAPGLIRSAMTEAMPQRIWDQKLAEVPMGRAGEPSEVASVAVFLASDLSSYMTGTVLDVTGGRFI” as the sequence, how does the “soluble on expression in E. coli” value read?
**A.** The value was “soluble”.

**Q.** For “NTTGGRFVDKDNRKYYVKDDHKAIYWHKIDGKTYYFGDIGEMVVGWQYLEIPGTGYRDNLFDNQPVNEIGLQEKWYYFGQDGALLEQTDKQVLEAKTSENTGKVYGEQYPLSAEKRTYYFDNNYAVKTGWIYEDGNWYYLNKLGNFGDDSYNPLPIGEVAKGWTQDFHVTIDIDRSKPAPWYYLDASGKMLTDWQKVNGKWYYFGSSGSMATGWKYVRGKWYYLDNKNGDMKTGWQYLGNKWYYLRSSGAMVTGWYQDGLTWYYLNAGNGDMKTGWFQVNGKWYYAYSSGALAVNTTVDGYSVNYNGEWVQ”, which “soluble on expression in E. coli” value is on record?
**A.** Its value is “soluble”.

**Q.** With “MDFAFEKVARDWFVRWSKGRSEKYAGQVMRNFERWVFPAIGNLDIRQVRTADVVGCLRVMEARGIVDTLRKTKNSLKMVFAFAVGSGMMEINPVAQIGSGVFERLEHHHHHH” as the sequence, how does the “soluble on expression in E. coli” value read?
**A.** Its value is “not soluble”.

**Q.** Which “soluble on expression in E. coli” value does the source give for “MARVRFENKRVNMSKLSQFGFEPNQNGQYQFRILIMQGQFEMIIELNTDGSLNTTLTDTTTSEVYVLHLTSQAHGQFVGQVAQAYQDVLYNIEQHCYDNDVFQSTPERKLIAQVKAAYGDDLEFLWPKFPQNAVWRRSDTHKWYGALLTVTSDKLALPGATHVVTVLDLRARPEDLSMLIDGQHYLPGYHMNKKHWYSILLDDVVPLATIMDDVKVSYMLAKLEHHHHHH” here?
**A.** Its value is “not soluble”.

**Q.** Which “soluble on expression in E. coli” value does the source give for “MTRSALKPFKNKRVMVTGRIQRVLFKNYLDRHSTFKPNVRILLKDVFVSGVSIDHLWLYETNKYYALAMELIHQRVKFSANVVPYYKINRNNNLFVQDYGIKRKGRLITEEAYNQNNQYQDKIYEKLPDIDFRLEDFYSKENLEHHHHHH” here?
**A.** The value was “not soluble”.

**Q.** For “MGSDKIHHHHHHMENDFPLKGKTVLVTRNKAQAASFQQKVEALGGKAVLTSLITFRRALPNDVAEQVREDLAAPGWLVFTSVNGADFFFSYLKENQLILPAHKKIAAVGEKTARRLKMHNVSVDVMPQEYIAEQLADALKQHAEPGETITVMKGNLSRDVIKQELVPLGFEVKEWVLYETIPDEEGIEALKDAAGQYSFDYVTFTSSSTVHTFMHVLGEELKKWKANGTACISIGPLTNDALLTYGITSHTPDTFTIDGMLELMCSMSREEERI”, which “soluble on expression in E. coli” value is on record?
**A.** The value was “not soluble”.

**Q.** Which “soluble on expression in E. coli” value does the source give for “MASKASGGSTRNGRDSISKRLGVKRYDGQFVKAGNIIVRQRGTRIYPGKNVGMGSDYTLFALKDGYVYFETRRKKKFVSVLSPEEWEKVMAQKNGKVH” here?
**A.** Its value is “not soluble”.

**Q.** With “MIRLNVFVRVNETNREKAIEAAKELTACSLKEEGCIAYDTFESSTRRDVFMICETWQNAEVLAAHEKTAHFAQYVGIIQELAEMKLEKFEF” as the sequence, how does the “soluble on expression in E. coli” value read?
**A.** The value was “soluble”.

**Q.** Which “soluble on expression in E. coli” value does the source give for “GPGSMSETIPVSVQCCEGRFELSVDSNHTLRDVLRQFKREVAALDPINLEEYVVNHEGKLLLDDSVTLQTVGVKKDSVFVLVRKACCPAASPEKDEDDM” here?
**A.** Its value is “soluble”.

**Q.** For “MGSDKIHHHHHHMVDGMKHLILKVTNRCNLNCIYCYANNKNNKDMDFKTAKNAIDYLLNLDNQIKIQFTGGEPLLNFNLIEKIVDYCNDNYSNCNIQYAIQTNATLINEKIAEKIKELDIKVGISIDGLEINDILRPYKNGKPSTLDTLKGMYILKSYNIPFGITTVVTNKNLPYLEEFVKYLIAFGVKSISFDLLKPKKKEHLTLMPNIEEFNKLLNKLGRYPIYIKNLQKRPKDKYCYLNSGDLLFVNEFGDIYLCPTLEGLSCLGNINDKNKIKLPKVKSKGCYAREFLIKTFKK”, which “soluble on expression in E. coli” value is on record?
**A.** Its value is “not soluble”.

**Q.** For “MAHHHHHHMKSTQSNLNDEEKVMNNNEKIIKNSYGELLSGCIKNKSSDMNTGDVYPCNDKNTKIVSIKNVYNNLYKTSDSLFFNEENEENRMENCIIRNDGRDMENKFSLYINNAENKDDNNMNNNKNDNINDNINDNINDNINDNINDNINDNINDNINNNINDNINNNIYHNQNNNIYHNIYHNNIINDGVIINEHTSHGDRSSFLNNNKNYNISNYTNHGHNINLNEEKNEKVYMHRNENNEKIHYSNNKDYIEKGNEKSVSSKKGEETYTNNSYNIHLKNMDVKNNERDMCKTMVNNSNIKENKKYSNKTIQQEENTEHEYNIINEEEEEHIKLFKNMNLEEIKNVLSKNDASTLKILLCTDNHLGYKENNSIQKKDSFNSFEEILFIAKKLNVDMILNSGDLFHKNKVSEYTLFKSMYIIRKYCHINENDKEMQQDDNINNNIYPNDLNNDDKSVSKAISEDEFCNMYNVQVKEIKNYKYEYYKNEHTLNNRNNIFDDTNDCMSNKSFIQDKNENLYKDDEDNTNGVKLLQRNDEMNNSDHPGEYLNYRNGKKQIKYYNKLKENNNEFFNKLKICSVNQKFKKLIPFYTIHGNHDYPYSYEYISPLDILNISNLINYIGKNNLNNIVVKPILLNKYKSKISIYAVGWMKDERLYRSFENNEVKFILPSDYKNRINILVLHQNRYIRNAYGNNTKNFIKESFIPKFIDLVIWGHEHFSKPYLEESILNSFYNIQLGSSVRTSICPNEYGDKFIGLLEIKNQRFRFLKINLETVRPFEMKDIKLADYELNFKSESVLKEFLHEQTHAILEKIKNNFSHEIKKYFFFKQLFHTKNKLETNTNKKHQTEYNNINICTKEINSHLNDYQDENLYKSLISISKEDINNFYNNLKNEDFYSSTFIHFAFADPYDTFDLLKIKKEVYEKPLLKIKVEYDDVNIINTQLFGSLFINSIANPSEFLSFYRKKIRQRDIYNNNDNNNDNINDNNNNNDHGKNNTNHDTYNNNYNNNRIDEDEGDKDLHNMEYINEYNKVFDILFDYCDIKNKLLILDENVIMDTIQNFILNTNSSFNFNTNVTSDFTSINSMVDKSFKNKVESIEKQMGNMSAENITDAYLTDVLKKIKNTS”, which “soluble on expression in E. coli” value is on record?
**A.** Its value is “not soluble”.

**Q.** Which “soluble on expression in E. coli” value does the source give for “MSLKRKVLFTAVMVLAGLQLLSGCGKTEASANDTVVLRYAYASNSQPVIDSMKKFGELVEEKTDGKVQIEYFPDGQLGGETELIELTQTGAIDFAKVSGSALESFSKDYSVFAIPYIFDNEKHFFKVMDNQALMQPVYDSTKKLGFVGLTYYDSGQRSFYMSKGPVTSPDDLKGKKIRVMQSETAIKMVELLGGSPVPMGSSEVYTSLQSNLINGAENNEFVLYTAGHGGVAKYYSYDEHTRVPDIVIMNEGTKERLTAKQEQAIEEAAKESTAFEKTVFKEAVEEEKKKAQAEYGVVFNQVDSEPFQKLVQPLHESFKNSSEHGELYQAIRQLADEGGSHHHHHH” here?
**A.** The value was “soluble”.

**Q.** With MDPGKKKQHICHIQGCGKVYGKTSHLRAHLRWHTGER as the sequence, how does the “soluble on expression in E. coli” value read?
**A.** The value was “soluble”.

**Q.** With “MGTRDDEYDYLFKVVLIGDSGVGKSNLLSRFTRNEFNLESKSTIGVEFATRSIQVDGKTIKAQIWDTAGQERYRAITSAYYRGAVGALLVYDIAKHLTYENVERWLKELRDHADSNIVIMLVGNKSDLRHLRAVPTDEARAFAEKNGLSFIETSALDSTNVEAAFQTILTEIYRIVSQKQMSDRRENDMSPSNNVVPIHVPPTTENKPKVQCCQNI” as the sequence, how does the “soluble on expression in E. coli” value read?
**A.** The value was “soluble”.
